Data reported in article PMC6780846, “Identification and Characterization of a Novel Protein ASP-3 Purified from Arca subcrenata and Its Antitumor Mechanism” (Marine Drugs, 2019).

Target: T1, vascular endothelial growth factor receptor 2 (UniProt P35968 20-764)
T1 construct: VEGFR2 (vascular endothelial growth factor receptor 2); probably a bought recombinant protein (surmise); also called VEGFR2; VEGFR-2
Test: SPR; Biacore S200; ASP-3 immobilised on a CM5 chip (NHS/EDC activation); VEGFR2 at 100, 50, 25, 12.5, 6.25 and 3.125 nM flowed over for 180 s at 10 μL/min; running buffer HBS-EP+; reference channel subtracted
Settings: both partners purified

T1 sequence (P35968 20-764): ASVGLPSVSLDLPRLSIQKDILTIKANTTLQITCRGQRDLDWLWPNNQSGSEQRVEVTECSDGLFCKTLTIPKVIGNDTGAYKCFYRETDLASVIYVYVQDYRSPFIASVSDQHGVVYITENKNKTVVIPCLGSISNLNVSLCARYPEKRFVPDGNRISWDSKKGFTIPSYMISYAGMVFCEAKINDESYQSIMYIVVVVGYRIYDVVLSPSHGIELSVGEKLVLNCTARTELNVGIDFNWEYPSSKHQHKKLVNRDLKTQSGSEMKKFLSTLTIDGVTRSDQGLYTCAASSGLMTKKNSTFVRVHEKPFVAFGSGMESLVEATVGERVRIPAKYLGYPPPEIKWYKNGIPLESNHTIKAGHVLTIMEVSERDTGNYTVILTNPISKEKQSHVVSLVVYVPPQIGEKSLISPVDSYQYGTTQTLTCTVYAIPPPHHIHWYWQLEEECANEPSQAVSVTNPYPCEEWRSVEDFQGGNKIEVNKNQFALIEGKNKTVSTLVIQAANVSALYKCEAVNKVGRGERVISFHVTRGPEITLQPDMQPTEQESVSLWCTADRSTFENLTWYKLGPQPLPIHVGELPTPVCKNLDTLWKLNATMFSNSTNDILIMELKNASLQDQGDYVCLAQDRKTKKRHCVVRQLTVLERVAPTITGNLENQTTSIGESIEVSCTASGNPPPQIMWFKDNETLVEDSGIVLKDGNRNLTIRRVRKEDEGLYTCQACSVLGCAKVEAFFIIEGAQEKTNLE

- Kd: 39.9 nM
B1: ASP-3 (natural protein, Arca subcrenata)
chain: MDYLTSKWKLWFHSLDVNHDGKISFEDVEESRNKFTDLHKLLGDKASGVKVDMESWWNTYIFKASGGGELSEEMFIKSNTDRYNKDKAAFLNDIQKCFNMIFDVIDTNKDRSIELNEFIYAFKAFGHENEGLVTKAFELLEPKEGLVPLRDIVNAWVSFVTSTDQSKPDAIKQAFDAGF
notes: ASP-3, Arca subcrenata Lischke, 179 amino acids, 20.6 kDa; Native protein isolated from the animal; also called Arca subcrenata protein; cds.c115914_g1_i1
